# Source: patent US20250236644A1, “De Novo Designed Stimulus-responsive Two-state Hinge Proteins” (University of Washington, priority 2024, published 2025)
# B1: cs074: de novo designed two-state hinge protein, SEQ ID NO:4 (protein)
# chain: MSGDEEVQEAVERAEELREEAEELIKKARKTGDPELLRKALEALKEAVRAVKEAIKRNPDNEEAVKTAVRLARELLKVAEELKERAEKTGDPRLLLLAAEAIAWAIEAVFLAAKASENTEGALEAARAAVKLAEVAKRIAKLLQRDAKKEGDPELLKLALRALELAVRAVELAIKENPDNEEAVETAKRLAEELRKVAELLEERAKETGDPELQELAKRAKEVADRARELAKKSNPNNGSGSHHWGSTHHHHHH
# B2: cs269: designed hinge protein, SEQ ID NO:14 (protein)
# chain: MSGDEERVRELAERASREAERAVRSGSEESLEEALRNVEELIRKSDSEEARVRVAEAAVRAAAEAAARSGTVEAAAVAVIFTARVLQIVSSSEEAVVRVLAAAAAAAARVAVELGTEEALETALRFVELLVRLADSDEARQRVLRSASESARRSAEESGSERAREVAERFRERIERNQGSGSHHWGSTHHHHHH
# B3: cs221F: extended hinge cs221 for FRET labeling, SEQ ID NO:31 (protein)
# chain: MSGEMVEEIEKLAEELAKKTKDCEVKKLAKKAAELAKKSTDEMKKEIVKDALELALRTKDEEVIRLALKAAVLAAESDDEEVKEVVKKALEAALKSKDEEVIRLLLLAAVLAAAAARSGSPEEKLEIAKKALELAMKSKDEEVIRLALLAAVLAARSDDEEVLKIVKKALELAMESKDVEVIRLALEAAVLAARSTDPEKKKCVYEALEKAMESKDEEEIKKELKAAVEKARSTEGSGSHHWGSTHHHHHH
# B4: cs074F: extended hinge cs074 for FRET labeling, SEQ ID NO:29 (protein)
# chain: DEEVQEAVERAEELREEAEELIKKARKTGDPELLRKALEALECAVRAVEEAIKRNPDNDEAVETAVRLARELKKVAEELQERAKKTGDPELLKLALRALKVAVRAVKLAIKSNPDNEEAVKTAVRLARELLKVAEELKERAEKTGDPRLLLLAAEAIAWAIEAVFLAAKASENTEGALEAARAAVKLAEVAKRIAKLLQRDAKKEGDPELLKLALRALELAVRAVELAIKENPDNDEAVETAVRLARELKKVAEELQERAKKTGDPELLKLALRALEVAVRAVELAIKSNPDNEEAVETAKRLAEELRKVAELLEERACETGDPELQELAKRAKEVADRARELAKKSNPNNGSHHHHHH
# B5: cs201F: extended hinge cs201 for FRET labeling, SEQ ID NO:30 (protein)
# chain: MSGDEEVQEAVERAEELREEAEELIKKARKTGDPELLRKALEALEEAVRAVEEAICRNPDNDEAVETAVRLARELKKVAEELQERAKKTGDPELLKLALRALEVAVRAVELAIKSNPDNDEAVETAVRLARELKKVAEELQERAKKTGDPELLKLALRALEVAVRAVELAIKRNPDNEEAIKTALRLARELRKVAKELIERARKTGDAELLKKALEAARVAVEAVRLAAEYNKENAEKMAELLVELAELAREVADVLIELAEKTGDPELLKKALEVLEEAVEAVRLAIEYDPDHDEAVETAVRLARELKKVAEELQERAKKTGDPELLKLALRALEVAVRAVELAIKSNPDNEEAVETAKRLAEELRKVAELLEERAKETGDPCLQELAKRAKEVADRARELAKKSNPNNGSGSHHWGSTHHHHHH
# B6: cs094: designed hinge protein, SEQ ID NO:5 (protein)
# chain: MSGDEEERLRQEVEKAEKELEKLAKQSTDEEVRKMVREVAKQLRRLAEEAIRQKDDEALRQATEVVKMVQEAVKVAQKTTDQKVILLLLAVALVAIKVAQLAIRSDDTEALRLARIVIRAVQLLVKLVQKTTDPEVRRTALRVAELLAKLAKEAIERNDEEALREASEVVKEVQELVKEAEKSTDEEEIRELLQRAEERIREAQERIREGSGSHHWGSTHHHHHH
# Assays:
# TAMRA-cs074B = experiment: Fluorescence polarization (FP) titration and kinetics, hinge vs TAMRA-cs074B; format: binding; details: Effector TAMRA-cs074B; method FP
# Method: (§1) All FP measurements were performed at 25° C. in 96-well plates (Corning 3686) using a Synergy Neo2™ plate reader and a 530/590 nm filter cube. The buffer for all FP measurements was 20 mM Tris-HCl, 100 mM NaCl, 0.05% v/v TWEEN20 at pH 8. Titrations were carried out in 96-well format, with 4 replicates per plate and 24 data points per titration (23 steps of two-fold serial dilution of hinges in the presence of TAMRA-labeled peptide at a constant concentration between 0.1 nM and 1 nM) with a final sample volume of 80 μl per well. Titration plates were incubated overnight at room temperature before measuring to ensure complete equilibration. The polarization signal S (as calculated by the Neo2™ software) was fitted to the equation
# (§2) where fAB is the fraction of peptide that is bound, Atot is the absolute hinge concentration, Btot is the absolute peptide concentration, S0 is the baseline polarization of free peptide, and S1 is the change in polarization upon complex formation.
# (§3) Fitting was performed using the scipy.optimize.curve_fit python function (53). Uncertainties for KD values are standard deviation errors calculated from the covariance matrix of the fits. In cases where the fitted KD was lower than the concentration of the labeled peptide Btot, we report the KD as KD<Btot.
# For FP kinetics experiments a 2× peptide solution and 8 different 2× hinge solutions at different concentrations were prepared separately. 40 μl of each hinge solution were mixed with 40 μl peptide solution using a multichannel pipet and the measurement was started immediately after mixing. Polarization signals S at each concentration were fitted individually to the equation
# where S0 is the amplitude, S1 is the polarization at equilibrium, kapp is the apparent rate constant, t is the time after start of the measurement, and t0 is the dead time between mixing and start of the measurement. For each hinge-peptide pair, the apparent rate constants for 8 different concentrations are fitted to the equation
# where koff and kon are observed off- and on rates and Atot is the absolute hinge concentration.
# three-helix bundles = experiment: SEC binding experiments with three-helix bundles; details: FIG. 16A
# Method: (§4) Individual hinge and sfGFP-fused peptides or 3hb were diluted in 20 mM Tris pH 8, 100 mM NaCl and mixed at approximately 1:1 concentrations. 0.5-1 mL of the resulting samples were injected onto a Superdex™ 200 Increase 10/300 GL columns and the absorbance at 230 nm was used as a readout for binding. For sfGFP-fused peptides, 473 nm was also used as readout. Mixtures were at a total concentration of 2. μM or higher.
# TAMRA-cs269B = experiment: FP titration and kinetics, hinge vs TAMRA-cs269B; format: binding; details: Effector TAMRA-cs269B; method FP
# Method: as §1, §2
# as §3, with “KD<Btot. […]” for “KD<Btot.”
# [1] = test system: original peptides fused to superfolder green fluorescent protein (sfGFP); experiment: SEC binding experiments with original peptides fused to sfGFP; details: FIG. 17C
# Method: as §4
# 3hb21 = experiment: FRET titration and kinetics, labeled extended hinge vs 3hb21; format: binding
# Method: (§5) AlexaFluor™ 555 C2 maleimide (donor) and AlexaFluor™ 647 C2 maleimide (acceptor) were purchased from ThermoFisherScientific. Stock solutions at −5 mM were prepared by dissolving 1 mg of each dye in 200 μl DMSO. Hinge variants containing two cysteines were expressed and purified as described above with the modification that 0.5 mM TCEP was used during lysis, IMAC and SEC, and that the buffer for initial SEC contained 20 mM sodium phosphate (PH 7.0) instead of Tris-HCl. After SEC, 500 μl hinge at a concentration of 50 μM was incubated with 500 μM of a single dye for controls or 250 μM each of two dyes. After 2 h incubation at room temperature, samples were purified by SEC using a buffer containing 20 mM Tris-HCl and 100 mM NaCl at pH 8.
# (§6) The buffer for all FRET measurements was 20 mM Tris-HCl, 100 mM NaCl, 0.05% v/v TWEEN®20 at pH 8. Fluorescence spectra were recorded at room temperature using a FluoroMax™ spectrometer in a 1 cm×1 cm cuvette at a sample volume of 3 ml. FRET titrations and kinetics measurements were performed at 25° C. in 96-well plates (Corning 3686) using a Synergy Neo2™ plate reader. Excitation wavelength was 520 nm and emission wavelength was 665 nm (except for donor-donor controls for which emission wavelength was 555 nm, see FIG. 13B right column).
# (§7) Titrations were carried out in 96-well format, with 4 replicates per plate and 24 data points per titration (23 steps of two-fold serial dilution of effector (peptide or 3hb) in the presence of double-labeled hinge at a constant concentration of 2 nM) with a final sample volume of 80 μl per well. […] The raw fluorescence signal (donor emission upon acceptor excitation) was fitted to the equation
# (§8) Fitting was performed using the scipy.optimize.curve_fit python function (53). Uncertainties for KD values are standard deviation errors calculated from the covariance matrix of the fits. […]
# (§9) For FRET kinetics experiments a 2× hinge solution and 8 different 2× effector solutions at different concentrations were prepared separately. […] Fluorescence signals S at each concentration were fitted individually to the equation […]
# cs221B = experiment: FRET titration and kinetics, labeled extended hinge vs peptide cs221B; format: binding
# Method: as §5, with “After 2 h incubation at room temperature, samples were purified by SEC using a buffer containing 20 mM Tris-HCl and 100 mM NaCl at pH 8.” left out
# as §6, with “Excitation wavelength was 520 nm and emission wavelength was 665 nm (except for donor-donor controls for which emission wavelength was 555 nm, see FIG. 13B right column).” left out
# as §7, with “equation […]” for “equation”
# off-target peptides = experiment: Pairwise FRET titrations of labeled hinges with off-target peptides; format: binding; details: 2 nM labeled hinge; off-target peptides at μM concentrations; flat lines
# Method: A critical feature of two-state switches in biology and technology is the coupling between the state control mechanism and the populations of the two states. To quantitatively investigate the thermodynamics and kinetics of the effector induced switching between the two states of our designed hinges, we used Forster resonance energy transfer (FRET). […]
# as §6, with “Excitation wavelength was 520 nm and emission wavelength was 665 nm (except for donor-donor controls for which emission wavelength was 555 nm, see FIG. 13B right column).” left out
# as §7
# cs074B = experiment: FRET titration and kinetics, labeled extended hinge vs peptide cs074B; format: binding; details: Effector cs074B; method FRET
# Method: as §5, with “After 2 h incubation at room temperature, samples were purified by SEC using a buffer containing 20 mM Tris-HCl and 100 mM NaCl at pH 8.” left out
# as §6, with “Excitation wavelength was 520 nm and emission wavelength was 665 nm (except for donor-donor controls for which emission wavelength was 555 nm, see FIG. 13B right column).” left out
# as §7, with “equation […]” for “equation”
# 3hb05 = experiment: FRET titration, labeled extended hinge vs 3hb05; format: binding
# Method: as §5, with “After 2 h incubation at room temperature, samples were purified by SEC using a buffer containing 20 mM Tris-HCl and 100 mM NaCl at pH 8.” left out
# as §6, with “Excitation wavelength was 520 nm and emission wavelength was 665 nm (except for donor-donor controls for which emission wavelength was 555 nm, see FIG. 13B right column).” left out
# as §7, with “equation […]” for “equation”
# cs201B = experiment: FRET titration and kinetics, labeled extended hinge vs peptide cs201B; format: binding
# Method: as §5, §6, §7, §8, §9
# TAMRA-cs094B = experiment: FP titration and kinetics, hinge vs TAMRA-cs094B; format: binding; details: Effector TAMRA-cs094B; method FP
# Method: as §1, §2
# as §3, with “KD<Btot. […]” for “KD<Btot.”
# Chain of cs201B (as listed by the source): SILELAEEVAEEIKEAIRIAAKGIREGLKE
# Chain of 3hb21 (as listed by the source): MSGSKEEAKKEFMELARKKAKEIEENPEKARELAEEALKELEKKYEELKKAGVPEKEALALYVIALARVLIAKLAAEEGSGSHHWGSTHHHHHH
# Chain of cs221B (as listed by the source): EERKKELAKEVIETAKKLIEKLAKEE
# Chain of TAMRA-cs074B (as listed by the source): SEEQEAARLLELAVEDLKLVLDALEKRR
# Chain of 3hb05 (as listed by the source): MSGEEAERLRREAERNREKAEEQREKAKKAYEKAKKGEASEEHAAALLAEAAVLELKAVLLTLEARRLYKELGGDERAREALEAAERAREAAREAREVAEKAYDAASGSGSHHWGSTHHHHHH
# Chain of TAMRA-cs094B (as listed by the source): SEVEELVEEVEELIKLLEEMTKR
# Chain of TAMRA-cs269B (as listed by the source): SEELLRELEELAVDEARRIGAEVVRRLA
molecule,measurement,setting,value
B1,kon,TAMRA-cs074B,64000 M⁻¹ s⁻¹
same,SEC binding to three-helix bundles,three-helix bundles,clear binding
B2,kon,TAMRA-cs269B,2500 M⁻¹ s⁻¹
same,SEC binding experiment with sfGFP-fused original peptide,[1],higher-order peaks
B3,kon,"3hb21; Effector 3hb21, method FRET, 5 nM hinge",13000 M⁻¹ s⁻¹
same,binding compared with the original peptide cs221B,3hb21; FRET,significantly tighter
same,"KD, times stronger than the KD of the original peptide cs221B","3hb21; FRET titration, 2 nM hinge",at least 20 times
same,kon,"cs221B; Effector cs221B, method FRET",2600 M⁻¹ s⁻¹
same,off-target FRET titration outcome,off-target peptides,no conformational change
B4,kon,TAMRA-cs074B,100000 M⁻¹ s⁻¹
same,kon,cs074B,170000 M⁻¹ s⁻¹
same,off-target binding compared to the on-target interaction for cs074B,"cs221B; FRET titration, 2 nM labeled hinge, peptide cs221B",two orders of magnitude weaker
same,affinity compared with the original peptide cs074B,3hb05,similar
same,off-target binding compared to the on-target interaction for cs074B,"cs201B; FRET titration, 2 nM labeled hinge, peptide cs201B",three orders of magnitude weaker
B5,off-target FRET titration outcome,off-target peptides,no conformational change
same,reversibility of hinge conformational change,"cs201B; 30 nM FRET-labeled hinge, peptide added, then excess unlabeled hinge cs201",fully reversible
same,kon,"cs201B; Effector cs201B, method FRET",4500 M⁻¹ s⁻¹
B6,kon,TAMRA-cs094B,9400 M⁻¹ s⁻¹
